Molecular target: T1, CasEnd-1 (synthetic construct)
T1 chain: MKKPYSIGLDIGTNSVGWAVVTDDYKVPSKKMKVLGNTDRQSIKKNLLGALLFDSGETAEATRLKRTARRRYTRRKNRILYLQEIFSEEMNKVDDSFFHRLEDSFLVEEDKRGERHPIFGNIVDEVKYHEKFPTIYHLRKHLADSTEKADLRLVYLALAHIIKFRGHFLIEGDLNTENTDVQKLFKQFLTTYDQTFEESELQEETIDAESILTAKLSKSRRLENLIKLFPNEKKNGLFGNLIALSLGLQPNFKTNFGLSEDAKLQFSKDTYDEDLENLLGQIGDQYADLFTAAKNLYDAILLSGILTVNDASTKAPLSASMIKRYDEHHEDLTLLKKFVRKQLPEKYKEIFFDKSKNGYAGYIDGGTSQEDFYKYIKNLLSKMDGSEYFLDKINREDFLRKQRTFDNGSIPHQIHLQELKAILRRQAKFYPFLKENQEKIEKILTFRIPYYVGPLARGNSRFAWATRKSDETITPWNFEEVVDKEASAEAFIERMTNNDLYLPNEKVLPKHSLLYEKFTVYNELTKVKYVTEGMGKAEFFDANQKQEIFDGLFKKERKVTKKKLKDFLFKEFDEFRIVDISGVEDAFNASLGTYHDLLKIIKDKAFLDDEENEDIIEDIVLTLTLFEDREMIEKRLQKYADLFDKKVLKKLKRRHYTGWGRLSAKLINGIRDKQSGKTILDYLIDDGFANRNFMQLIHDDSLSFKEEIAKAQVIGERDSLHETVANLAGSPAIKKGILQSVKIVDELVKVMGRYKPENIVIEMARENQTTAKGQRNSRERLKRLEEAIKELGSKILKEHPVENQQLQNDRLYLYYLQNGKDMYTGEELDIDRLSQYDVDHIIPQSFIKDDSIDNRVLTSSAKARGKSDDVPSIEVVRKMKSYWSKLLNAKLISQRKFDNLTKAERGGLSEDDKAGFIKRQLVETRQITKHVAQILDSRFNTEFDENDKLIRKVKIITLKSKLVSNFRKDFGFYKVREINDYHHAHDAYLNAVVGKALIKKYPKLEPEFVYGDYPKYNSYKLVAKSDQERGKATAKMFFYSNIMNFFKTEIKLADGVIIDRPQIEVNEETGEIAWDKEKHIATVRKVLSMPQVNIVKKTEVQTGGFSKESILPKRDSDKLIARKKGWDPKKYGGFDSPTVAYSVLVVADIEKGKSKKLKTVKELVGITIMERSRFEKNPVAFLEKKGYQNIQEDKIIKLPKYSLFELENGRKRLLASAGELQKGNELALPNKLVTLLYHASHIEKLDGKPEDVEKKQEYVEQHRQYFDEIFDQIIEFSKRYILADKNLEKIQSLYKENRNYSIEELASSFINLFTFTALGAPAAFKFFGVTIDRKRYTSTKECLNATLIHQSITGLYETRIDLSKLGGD
Assay: cell_activity; +++; HEK293T; PAM not stated
Summary of the method: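 BFP-to-GFP conversion via reverse transcriptase fusion with each Cas endonuclease plus template RNA: 200 ng of each plasmid nucleofected into 250,000 BFP-expressing HEK293T cells (program DS-150). Percent GFP+ cells by flow cytometry at day 4 measured editing.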

B1: BFP-to-GFP template RNA ; BFP reporter protospacer (ssRNA ; dsDNA)
RNA: GCCGAAGCACUGCACGCCGUGUUUUAGAGCUAGAAAUAGCAAGUUAAAAUAAGGCUAGUCCGUUAUCAACUUGAAAAAGUGGCACCGAGUCGGUGCACCCUGACGUACGGCGUGCAGUGCUU
DNA 1: GCCGAAGCACTGCACGCCGT
DNA 2: ACGGCGTGCAGTGCTTCGGC
**Q.** With B1 as the binder, how does the activity read?
**A.** ≥ 100 % of reference

Reference: patent US20250092426, “CAS ENDONUCLEASES AND RELATED METHODS” (Flagship Pioneering Innovations VII, LLC, published 2025)
